Data taken from US20180201670A1 (published 2018).

B1: 9D5 (antibody, V domains shown)
VH: EVKLVESGGGLVQPGGSLKLSCAASGFTFSSYTMSWVRQTPEKRLELVAEISNSGDTTYYPDTVKGRFTFSRDNAKNTLYLQMSSLKSEDTAMYYCARHYYYGGGYGGWFFDVWGTGTTVTVSS
VL: DIVMTQAAPSVPVTPGESVSISCRSSKSLLHSNGNTYLYWFLQRPGQSPQLLIYRVSNLASGVPDRFSGSGSGTAFTLRISRVEAEDVGVYYCMQHLEYPLTFGAGTKLELK
B2: Hu-6C1-H3bL2 (antibody, human IgG1, kappa, V domains shown)
VH: EVQLVESGGGLVQPGGSLKLSCAASGFTFSNYYMSWVRQAPGKRLEWVAYISIDGNNIYHPDSVKGRFTISRDNAKNTLYLQMNSLKAEDTAMYYCARDSDYGYFDVWGQGTLVTVSS
VL: DIVMTQTPLSLPVTPGEPASISCRSSQSIVHSNGNTYLEWYLQKPGQSPKLLIYKVSKRFSGVPDRFSGSGSGTDFTLKISRVEAEDVGVYYCFQGSHVPLTFGGGTKVEIKR
notes: also called Hu6C1VHv3b/VLv2; humanized 6C1 heavy chain version 3b / light chain version 2

Key:
pH4-treated TTR [1] = molecular target: T1, pH4-treated TTR (human, UniProt P02766 21-147); assay: Sandwich ELISA (pH 4-TTR)
pH4-treated TTR [2] = molecular target: T1, pH4-treated TTR; assay: ELISA; pH4-TTR captured on anti-His-coated plate, mAb 0.31-2.5 µg/ml
Experimental: Four lead mis-TTR mAbs (9D5, 14G8, 6C1, and 5A1) were assayed by ELISA at concentrations ranging from 0.31 to 2.5 μg/ml using both pH4.0-treated TTR (pH4-TTR) and native TTR as the coating antigen. TTR antigen preparation and ELISA protocols are described elsewhere in Materials and Methods (e-g).
Coated and blocked 96-well plates were treated with 50 μl per well of 2.5 μg/ml TTR antigen (either native TTR or pH4-TTR) for 1 hr. at room temperature. The plates were then washed two times with 250 μl per well of wash buffer (1× Tris Buffered Saline containing 0.05% Tween-20). Washed plates were then treated with 50 μl per well of the appropriate anti-TTR monoclonal antibody at concentrations ranging from of 0.31 to 2.5 μg/ml, for 1 hr.
The treated plates were washed 3 times with 250 μl perwell wash buffer. After washing, the plates were treated for 1 hr. with 50 μl per well of detection antibody comprising a 1:5,000 dilution of […] goat-anti-mouse (Jackson ImmunoResearch #115-035-164) in 1×PBS. The plate was then washed 3 times prior to the addition of 100 μl per well TMB substrate (Rockland). The HRP reaction was allowed to proceed at room temperature for 15 min. before quenching with a 50 μl per well volume of 1N […]. Spectroscopic absorbance was measured at a wavelength of 450 nm.

[3] = molecular target: T2, analyte of Example 8 (not named); assay: Biacore (SPR); analyte not named
T2 construct: Target of the Biacore run of Hu-6C1-H3bL2

Binder	Kd (pH4-treated TTR [1])	Kd (pH4-treated TTR [2])	Kd [3]	koff [3]	kon [3]
B1	257 nM	282 nM			
B2			1.46 nM	0.000545 s⁻¹	372000 M⁻¹ s⁻¹
